# Reference: patent publication US6111089, “Trophinin, trophinin-assisting proteins and methods to inhibit implantation” (The Burnham Institute, dated 2000)
# B1: human trophinin (other)
# chain: MDIDCLTREELGDDSQAWSRFSFEIEARAQENADASTNVNFSRGASTRAGFSDRASISFNGAPSSSGGFSGGPGITFGVAPSTSASFSNTASISFGGTLSTSSSFSSAASISFGCAHSTSTSFSSEASISFGGMPCTSASFSGGVSSSFSGPLSTSATFSGGASSGFGGTLSTTAGFSGVLSTSTSFGSAPTTSTVFSSALSTSTGFGGILSTSVCFGGSPSSSGSFGGTLSTSICFGGSPCTSTGFGGTLSTSVSFGGSSSTSANFGGTLSTSICFDGSPSTGAGFGGALNTSASFGSVLNTSTGFGGAMSTSADFGGTLSTSVCFGGSPGTSVSFGSALNTNAGYGGAVSTNTDFGGTLSTSVCFGGSPSTSAGFGGALNTNASFGCAVSTSASFSGAVSTSACFSGAPITNPGFGGAFSTSAGFGGALSTAADFGGTPSNSIGFGAAPSTSVSFGGAHGTSLCFGGAPSTSLCFGSASNTNLCFGGPPSTSACFSGATSPSFCDGPSTSTGFSFGNGLSTNAGFGGGLNTSAGFGGGLGTSAGFSGGLSTSSGFDGGLGTSAGFGGGPGTSTGFGGGLGTSAGFSGGLGTSAGFGGGLVTSDGFGGGLGTNASFGSTLGTSAGFSGGLSTSDGFGSRPNASFDRGLSTIIGFGSGSNTSTGFTGEPSTSTGFSSGPSSIVGFSGGPSTGVGFCSGPSTSGFSGGPSTGAGFGGGPNTGAGFGGGPSTSAGFGSGAASLGACGFSYG
# B2: biotinylated GST-N-terminal trophinin (other)
# chain: {GST}-MDIDCLTREELGDDSQAWSRFSFEIEARAQENADASTNVNFSRGASTRAGFSDRASISFNGAPSSS
# modifications: also: labeled with biotin succinamide (site not given here)
# Columns and labels:
# biotinylated GST = biotinylated GST (Schistosoma japonicum (Blood fluke), UniProt P08515 = GST, labeled with biotin succinamide); assay: staining of unpermeabilized HT-H, SNG-M and trophinin/tastin-transfected COS-1 cells, avidin-FITC
# Method: (§1) To identify hydrophilic extracellular domains of human trophinin that mediate cell adhesion, individual domains were expressed and evaluated for specific binding to trophinin expressing cells. The trophinin extracellular domain fusion proteins GST551, GST552 and GST553, the GST-N-terminal trophinin domain (residue 1 to 66) and GST were labeled with biotin succinamide (Sigma). SNG-M, HT-H and COS-1 cells transfected with a mixture of human trophinin and tastin cDNA were grown on coverslips and processed for cell staining with the biotinylated proteins essentially as was described for the antibodies to the external domains of trophinin, except that avidin-FITC (Cappel) was used in place of a FITC-secondary antibody.
# human trophinin = target: B1; assay: as above
# Method: as §1
binder,measurement,setting,value
B1,binding result,biotinylated GST,no binding
B2,binding result,human trophinin,no binding
